Measurements reported in patent publication US20180171001A1.

Columns and labels:
Experiment in all cases: cell-based or functional assay
[1] = molecular target: Env of HIV-1 strain 231965.c1 (HIV-1)
[2] = molecular target: Env of HIV-1 strain 250-4 (HIV-1)
[3] = molecular target: Env of HIV-1 strain 251-18 (HIV-1)
[4] = molecular target: Env of HIV-1 strain 3016.v5.c45 (HIV-1)
[5] = molecular target: Env of HIV-1 strain 3365.v2.c20 (HIV-1)
[6] = molecular target: Env of HIV-1 strain 3415.v1.c1 (HIV-1)
[7] = molecular target: Env of HIV-1 strain H086.8 (HIV-1)
[8] = molecular target: Env of HIV-1 strain PVO.4 (HIV-1)
[9] = molecular target: Env of HIV-1 strain R1166.c1 (HIV-1)
[10] = molecular target: Env of HIV-1 strain REJO4541.67 (HIV-1)
[11] = molecular target: Env of HIV-1 strain X1254_c3 (HIV-1)
[12] = molecular target: Env of HIV-1 strain YU2.DG (HIV-1)
[13] = molecular target: Env of HIV-1 strain ZM109F.PB4 (HIV-1)
[14] = molecular target: Env of HIV-1 strain ZM53M.PB12 (HIV-1)
Tier 2 15 virus panel = molecular target: Tier 2 15 virus panel
[15] = molecular target: Env of HIV-1 strain Du172.17 (HIV-1)
Env of MuLV = molecular target: Env of MuLV

B1: γ52κ5 (antibody, V domains shown)
VH: QIHLVQSGTEVKKPGSSVTVSCKAYGVNTFGLYAVNWVRQAPGQSLEYIGQIWRWKSSASHHFRGRVLISAVDLTGSSPPISSLEIKNLTSDDTAVYFCTTTSTYDRWSGLHHDGVMAFSSWGQGTLISVSA
VL: DIQMTQSPSTLSASTGDTVRISCRASQSITGNWVAWYQQRPGKAPRLLIYRGAALLGGVPSRFRGSAAGTDFTLTIGNLQAEDFGTFYCQQYDTYPGTFGQGTKVEVKR
neutralization IC50 [1]: 0.094 µg/mL
neutralization IC50 [2]: > 15 µg/mL
neutralization IC50 [3]: 0.048 µg/mL
neutralization IC50 [4]: 0.017 µg/mL
neutralization IC50 [5]: > 15 µg/mL
neutralization IC50 [6]: 0.12 µg/mL
neutralization IC50 [7]: 0.175 µg/mL
neutralization IC50 [8]: 0.019 µg/mL
neutralization IC50 [9]: 0.319 µg/mL
neutralization IC50 [10]: 0.035 µg/mL
neutralization IC50 [11]: 0.504 µg/mL
neutralization IC50 [12]: 0.065 µg/mL
neutralization IC50 [13]: > 15 µg/mL
neutralization IC50 [14]: 3.13 µg/mL
mean neutralization IC50 (Tier 2 15 virus panel): 0.45 µg/mL
potency against 8ANC195 (Tier 2 15 virus panel): 5 fold

B2: γ15κ61 (antibody, V domains shown)
VH: QIHLVQSGTEVKKPGSSVTVSCKAYGVNTFGLYAVNWVRQAPGQSLEYIGQIWRWKSSASHHFRGRVIISAVDLTGSSPPISSLEIKNLTSDDTAVYFCTTASTYDKWSGLHHDGVMAFSSWGQGTLISVSA
VL: DIQMTQSPSTLSASIGDTVRISCRASQSITGNWVAWYHQRPGKAPRLLIYRGAALLGGVPSRFSGSAAGTDFTLTIGNLQAEDFGTFYCQQYDTYPGTFGQGTKVEVKR
neutralization IC50 [1]: 5.23 µg/mL
neutralization IC50 [2]: > 15 µg/mL
neutralization IC50 [3]: 4.66 µg/mL
neutralization IC50 [4]: 1.21 µg/mL
neutralization IC50 [5]: > 15 µg/mL
neutralization IC50 [6]: > 15 µg/mL
neutralization IC50 [15]: > 15 µg/mL
neutralization IC50 [7]: > 15 µg/mL
neutralization IC50 [8]: 1.23 µg/mL
neutralization IC50 [9]: 6.55 µg/mL
neutralization IC50 [10]: 2.03 µg/mL
neutralization IC50 [11]: 10.9 µg/mL
neutralization IC50 [12]: 3.44 µg/mL
neutralization IC50 [13]: > 15 µg/mL
neutralization IC50 [14]: > 15 µg/mL
neutralization IC50 (Env of MuLV): > 15 µg/mL

B3: γ52κ61 (antibody, V domains shown)
VH: QIHLVQSGTEVKKPGSSVTVSCKAYGVNTFGLYAVNWVRQAPGQSLEYIGQIWRWKSSASHHFRGRVLISAVDLTGSSPPISSLEIKNLTSDDTAVYFCTTTSTYDRWSGLHHDGVMAFSSWGQGTLISVSA
VL: DIQMTQSPSTLSASIGDTVRISCRASQSITGNWVAWYHQRPGKAPRLLIYRGAALLGGVPSRFSGSAAGTDFTLTIGNLQAEDFGTFYCQQYDTYPGTFGQGTKVEVKR
neutralization IC50 [1]: 0.516 µg/mL
neutralization IC50 [2]: > 15 µg/mL
neutralization IC50 [3]: 0.273 µg/mL
neutralization IC50 [4]: 0.182 µg/mL
neutralization IC50 [5]: > 15 µg/mL
neutralization IC50 [6]: 0.681 µg/mL
neutralization IC50 [15]: 7.28 µg/mL
neutralization IC50 [7]: 0.242 µg/mL
neutralization IC50 [8]: 0.078 µg/mL
neutralization IC50 [9]: 1.64 µg/mL
neutralization IC50 [10]: 0.115 µg/mL
neutralization IC50 [11]: 2.57 µg/mL
neutralization IC50 [12]: 0.408 µg/mL
neutralization IC50 [13]: > 15 µg/mL
neutralization IC50 [14]: 8.44 µg/mL
neutralization IC50 (Env of MuLV): > 15 µg/mL

B4: γ46κ61 (antibody, V domains shown)
VH: QIHLVQSGTEVKKPGSSVTVSCKAYGVNTFGLYAVNWVRQAPGQGLEYIGQIWRWKSSASHHFRGRVLISAVDLTGSSPPISSLEIKNVTSDDTAVYFCTTTSTYDKWSGLHHDGVVAFSSWGQGTLISVSA
VL: DIQMTQSPSTLSASIGDTVRISCRASQSITGNWVAWYHQRPGKAPRLLIYRGAALLGGVPSRFSGSAAGTDFTLTIGNLQAEDFGTFYCQQYDTYPGTFGQGTKVEVKR
neutralization IC50 [1]: 1.58 µg/mL
neutralization IC50 [2]: > 15 µg/mL
neutralization IC50 [3]: 1.84 µg/mL
neutralization IC50 [4]: 0.383 µg/mL
neutralization IC50 [5]: > 15 µg/mL
neutralization IC50 [6]: > 15 µg/mL
neutralization IC50 [15]: 26.1 µg/mL
neutralization IC50 [7]: 0.584 µg/mL
neutralization IC50 [8]: 0.244 µg/mL
neutralization IC50 [9]: 2.58 µg/mL
neutralization IC50 [10]: 0.378 µg/mL
neutralization IC50 [11]: 4.46 µg/mL
neutralization IC50 [12]: 0.918 µg/mL
neutralization IC50 [13]: > 15 µg/mL
neutralization IC50 [14]: 27.5 µg/mL
neutralization IC50 (Env of MuLV): > 15 µg/mL

B5: 8ANC195 IgG (antibody, V domains shown)
VH: QIHLVQSGTEVKKPGSSVTVSCKAYGVNTFGLYAVNWVRQAPGQSLEYIGQIWRWKSSASHHFRGRVLISAVDLTGSSPPISSLEIKNLTSDDTAVYFCTTTSTYDKWSGLHHDGVMAFSSWGQGTLISVSA
VL: DIQMTQSPSTLSASIGDTVRISCRASQSITGNWVAWYQQRPGKAPRLLIYRGAALLGGVPSRFSGSAAGTDFTLTIGNLQAEDFGTFYCQQYDTYPGTFGQGTKVEV
neutralization IC50 [1]: 0.514 µg/mL
neutralization IC50 [2]: > 50 µg/mL
neutralization IC50 [3]: 0.284 µg/mL
neutralization IC50 [4]: 0.195 µg/mL
neutralization IC50 [5]: > 30 µg/mL
neutralization IC50 [6]: 2.4 µg/mL
neutralization IC50 [15]: 10.8 µg/mL
neutralization IC50 [7]: 0.095 µg/mL
neutralization IC50 [8]: 0.52 µg/mL
neutralization IC50 [9]: 0.986 µg/mL
neutralization IC50 [10]: 0.08 µg/mL
neutralization IC50 [11]: 1.52 µg/mL
neutralization IC50 [12]: 0.79 µg/mL
neutralization IC50 [13]: > 30 µg/mL
neutralization IC50 [14]: 9.63 µg/mL
neutralization IC50 (Env of MuLV): > 23 µg/mL
mean neutralization IC50 (Tier 2 15 virus panel): 2.3 µg/mL

B6: γ44κ61 (antibody, V domains shown)
VH: QIHLVQSGTEVKKPGSSVTVSCKAYEVNTFGLYAVNWVRQAPGQSLEYIGQIWRWKSSASHHFRGRVLISAVDLTGSSPPISSLEIKNVTSDDTAVYFCTTTSTHDKWSGLHHDGVMAFSSWGQGTLISVSA
VL: DIQMTQSPSTLSASIGDTVRISCRASQSITGNWVAWYHQRPGKAPRLLIYRGAALLGGVPSRFSGSAAGTDFTLTIGNLQAEDFGTFYCQQYDTYPGTFGQGTKVEVKR
neutralization IC50 [1]: > 15 µg/mL
neutralization IC50 [2]: > 15 µg/mL
neutralization IC50 [3]: > 15 µg/mL
neutralization IC50 [4]: > 15 µg/mL
neutralization IC50 [5]: > 15 µg/mL
neutralization IC50 [6]: > 15 µg/mL
neutralization IC50 [15]: > 15 µg/mL
neutralization IC50 [7]: > 15 µg/mL
neutralization IC50 [8]: > 15 µg/mL
neutralization IC50 [9]: > 15 µg/mL
neutralization IC50 [10]: > 15 µg/mL
neutralization IC50 [11]: > 15 µg/mL
neutralization IC50 [12]: > 15 µg/mL
neutralization IC50 [13]: > 15 µg/mL
neutralization IC50 [14]: > 15 µg/mL
neutralization IC50 (Env of MuLV): > 15 µg/mL

B7: γ20κ19 (antibody, V domains shown)
VH: QIHLVQSGTEVKKPGSSVAVSCKAYGVNTFGLYAVNWVRQAPGQSLEYIGQIWRWKSSASHDFRGRVIISAVDLTGSSPPISSLEIKNLTSDDTAVYFCTATSTPDYWSGLHHDGVMAFSSWGQGTLISVSA
VL: DIQMTQSPSTLSASVGDTVRISCRASQSITGGWLAWYHQRPGKAPRLLIYRGSRLLGGVPSRFSGSAAGTGFTLTIANLQAEDFGTFYCQQYDTYPGTFGQGTKVEVKR
neutralization IC50 [1]: > 15 µg/mL
neutralization IC50 [2]: > 15 µg/mL
neutralization IC50 [3]: > 15 µg/mL
neutralization IC50 [4]: > 15 µg/mL
neutralization IC50 [5]: > 15 µg/mL
neutralization IC50 [6]: > 15 µg/mL
neutralization IC50 [15]: > 15 µg/mL
neutralization IC50 [7]: > 15 µg/mL
neutralization IC50 [8]: > 15 µg/mL
neutralization IC50 [9]: > 15 µg/mL
neutralization IC50 [10]: > 15 µg/mL
neutralization IC50 [11]: 2.99 µg/mL
neutralization IC50 [12]: > 15 µg/mL
neutralization IC50 [13]: > 15 µg/mL
neutralization IC50 [14]: > 15 µg/mL
neutralization IC50 (Env of MuLV): > 15 µg/mL

B8: γ59κ61 (antibody, V domains shown)
VH: QIHLVQSGTEVKKPGSSVTVSCKAYGVNTFGLYAVNWVRQAPGQGLEYIGQIWRWKSSASHHFRGRVLISAVDLTGSSPPISSLEIKNVTSDDTAVYFCTTTSTYDEWSDLHHDGVMAFSSWGQGTLISVSA
VL: DIQMTQSPSTLSASIGDTVRISCRASQSITGNWVAWYHQRPGKAPRLLIYRGAALLGGVPSRFSGSAAGTDFTLTIGNLQAEDFGTFYCQQYDTYPGTFGQGTKVEVKR
neutralization IC50 [1]: > 15 µg/mL
neutralization IC50 [2]: > 15 µg/mL
neutralization IC50 [3]: 1.4 µg/mL
neutralization IC50 [4]: > 15 µg/mL
neutralization IC50 [5]: > 15 µg/mL
neutralization IC50 [6]: > 15 µg/mL
neutralization IC50 [15]: > 15 µg/mL
neutralization IC50 [7]: > 15 µg/mL
neutralization IC50 [8]: > 15 µg/mL
neutralization IC50 [9]: 7.46 µg/mL
neutralization IC50 [10]: 1.33 µg/mL
neutralization IC50 [11]: 4.01 µg/mL
neutralization IC50 [12]: 4.33 µg/mL
neutralization IC50 [13]: > 15 µg/mL
neutralization IC50 [14]: 13.3 µg/mL
neutralization IC50 (Env of MuLV): > 15 µg/mL
